One block for each compound: values may come before it.
Experiments:
[1] = tested on: BLECs; details: MTT assay; 10% (v/v) DMSO, 24 h; positive control of cell toxicity; mean of at least three independent experiments in triplicate
Description: An MTT assay was performed as a preliminary test to determine their effect on BLEC viability and to validate the chosen concentrations. Dimethyl sulfoxide (DMSO) at 10% (v/v) was used as a positive control of cell toxicity.
After 6 days of coculture, TNF-α or IL-1β were added to the basolateral compartment (brain side) at 10 ng·mL^−1 for 24 h, at 37 °C and 5% CO2, to mimic CNS inflammation condition. Each condition was studied in triplicate.
The standard MTT [3-(4,5-dimethylthiazol-2-yl)-2,5-diphenyltetrazolium bromide] assay (AR1156, Boster Biological Technology, Pleasanton, CA, USA) was performed to determine BLEC viability. Briefly, after coculture treatments, culture medium was removed and replaced with worm Ringer-Hepes (RH; 150 mM NaCl, 5.2 mM KCl, 2.2 mM CaCl2, 0.2 mM MgCl2–6H2O, 6 mM NaHCO3, 5 mM HEPES, 2.8 mM glucose; pH: 7.4) in basolateral compartment and with MTT solution (0.5 mg·mL^−1) in RH at in the opposite compartment for 3 h at 37 °C and 5% CO2. […] Aliquot was sampled in 96-well plate and the optical density (OD) was measured with a microplate reader (Synergy H1, BioTek. Colmar, France) at the wavelength of 570 and 630 nm. The percentage of relative cell viability compared to the control condition was subsequently determined using the following formula: % relative cell viability = ((OD570 − OD630) condition)/((OD570 – OD630)control) × 100.

[2] = tested on: BLECs; assay: Aβ1–40Cy5 peptide / FITC-inulin transport across untreated BLECs (Papp, transcytosis quotient); assay type: in vitro ADME, human; details: 30 min, 37 °C, mean ± SEM; for apparent permeability coefficient (Papp), efflux transport, control: untreated human BLECs on Transwell insert, basolateral-to-apical, 10 nM Aβ1–40Cy5 with 1 µM FITC-inulin in RH-HSA 0.1% pH 7.4, slight agitation, fluorescence, at least three independent experiments in triplicate
Description: As TNF-α and IL-1β modulated the protein expression levels of LRP1, BCRP and PICALM (Figure 4), we investigated the effect of these cytokines on the transport of Aβ peptide across the BBB. After 24 h of treatment with proinflammatory cytokines, the apical-to-basolateral (influx) and basolateral-to-apical (efflux) Aβ1–40Cy5 peptide transports across the BLECs were assessed in the presence of FITC-inulin. The Aβ1–40 peptide was used in all experiments, as it is the most abundant amyloid peptide found on cerebral blood vessels. FITC-inulin was used to determine the nonspecific transcytosis quotient (Figure 5A). Indeed, unlike Aβ peptide, FITC-inulin is not actively cleared at the BBB and acts as a reference marker of paracellular permeability, thus as previously reported.
(§1) As described previously, the human in vitro blood-brain barrier (BBB) model based on the acquisition of the human brain-like endothelial cell (BLEC) phenotype was used for this study. This BBB model corresponds to a coculture of primary human endothelial cells (ECs) derived from CD34^+ cord blood hematopoietic stem cells and bovine brain pericytes, isolated as described by Vandenhaute and colleagues. Informed consent was obtained from all infants’ parents for the umbilical cord blood collection and use. Procedures for isolation of cells from umbilical cord were approved by the French Ministry of Higher Education and Research (CODECOH DC2011-1321, approved 31 January 2013) and by the local investigational review board (Béthune Maternity Hospital, Beuvry, France). Briefly, 8 × 10^4 ECs at passage 6 were seeded onto Matrigel-coated (BD Biosciences, San Jose, CA, USA) insert (pore size 0.4 μm, Costar Transwell inserts, Corning Inc., Corning, New York, NY, USA. Endothelial cells were cocultured with bovine brain pericytes at passage 10 in a 12-well plate gelatin-coated with ECM-5. Every two days, ECM-5 was changed until experiment. However, a minimum of 5 days of culture were required for the ECs to develop the BLEC phenotype and a maximum of 21 days of BLEC phenotype stability has been determined. Once BLEC phenotype was acquired, these cells delimited two compartments, one mimicking the blood side (corresponding to the apical compartment) and the other the brain side (corresponding to the basolateral side). […]
After proinflammatory cytokine treatments, the influx (apical-to-basolateral) and the efflux (basolateral-to-apical) transport of Aβ1–40 peptides across BLECs were investigated as previously described. […] The BBB integrity was determined by measuring the endothelial permeability of a radioactive integrity marker, ^14C-sucrose, using the same method of calculation as described in Section 4.4. […]

[3] = tested on: BLEC monolayer; assay: Endothelial permeability coefficient of lucifer yellow across untreated BLEC monolayer; assay type: in vitro ADME, human; details: mean ± SEM
Description: as §1, with “Procedures for isolation of cells from umbilical cord were approved by the French Ministry of Higher Education and Research (CODECOH DC2011-1321, approved 31 January 2013) and by the local investigational review board (Béthune Maternity Hospital, Beuvry, France).” left out
The BLEC monolayer integrity was evaluated after each treatment using the method described by Dehouck and colleagues. […]

Compound: C[S+](C)[O-] [DMSO, Dimethyl sulfoxide, reference compound]
decrease of BLEC viability compared to control [1]: 26.5%

Compound: human amyloid-β peptide (1–40)-Cy5 [Aβ1–40Cy5]
transcytosis quotient of Aβ1–40Cy5, efflux direction, control ([2]; efflux Aβ1–40Cy5 Papp / efflux FITC-inulin Papp, untreated BLECs): 3.22 ± 0.13
transcytosis quotient of Aβ1–40Cy5, influx direction, control ([2]; influx Aβ1–40Cy5 Papp / influx FITC-inulin Papp, untreated BLECs): 3.10 ± 0.25
apparent permeability coefficient (Papp), efflux transport, control [2]: 4.47 ± 0.16 × 10^−6 cm·min^−1

Compound: FITC-inulin
apparent permeability coefficient (Papp), efflux transport, control [2]: 1.41 ± 0.03 × 10^−6 cm·min^−1

transcellular PeLY, control BLECs ([3]; PeLY at 37 °C minus PeLY at 4 °C): 0.36 ± 0.02 × 10^−3 cm·min^−1
paracellular PeLY, control BLECs ([3]; as total PeLY but at 4 °C (transcellular pathway inhibited), 50 µM LY in RH buffer, fluorescence): 0.18 ± 0.01 × 10^−3 cm·min^−1
Compound: Lucifer Yellow CH dilithium salt [LY]
